The target in test [1] is T1, N-terminal FLAG-tagged cynomolgus monkey ROBO4, cynoROBO4-2 (pCI-FLAG-cynoROBO4-2) (cynomolgus monkey, UniProt Q8WZ75 28-1007 (human entry)).
T1 chain: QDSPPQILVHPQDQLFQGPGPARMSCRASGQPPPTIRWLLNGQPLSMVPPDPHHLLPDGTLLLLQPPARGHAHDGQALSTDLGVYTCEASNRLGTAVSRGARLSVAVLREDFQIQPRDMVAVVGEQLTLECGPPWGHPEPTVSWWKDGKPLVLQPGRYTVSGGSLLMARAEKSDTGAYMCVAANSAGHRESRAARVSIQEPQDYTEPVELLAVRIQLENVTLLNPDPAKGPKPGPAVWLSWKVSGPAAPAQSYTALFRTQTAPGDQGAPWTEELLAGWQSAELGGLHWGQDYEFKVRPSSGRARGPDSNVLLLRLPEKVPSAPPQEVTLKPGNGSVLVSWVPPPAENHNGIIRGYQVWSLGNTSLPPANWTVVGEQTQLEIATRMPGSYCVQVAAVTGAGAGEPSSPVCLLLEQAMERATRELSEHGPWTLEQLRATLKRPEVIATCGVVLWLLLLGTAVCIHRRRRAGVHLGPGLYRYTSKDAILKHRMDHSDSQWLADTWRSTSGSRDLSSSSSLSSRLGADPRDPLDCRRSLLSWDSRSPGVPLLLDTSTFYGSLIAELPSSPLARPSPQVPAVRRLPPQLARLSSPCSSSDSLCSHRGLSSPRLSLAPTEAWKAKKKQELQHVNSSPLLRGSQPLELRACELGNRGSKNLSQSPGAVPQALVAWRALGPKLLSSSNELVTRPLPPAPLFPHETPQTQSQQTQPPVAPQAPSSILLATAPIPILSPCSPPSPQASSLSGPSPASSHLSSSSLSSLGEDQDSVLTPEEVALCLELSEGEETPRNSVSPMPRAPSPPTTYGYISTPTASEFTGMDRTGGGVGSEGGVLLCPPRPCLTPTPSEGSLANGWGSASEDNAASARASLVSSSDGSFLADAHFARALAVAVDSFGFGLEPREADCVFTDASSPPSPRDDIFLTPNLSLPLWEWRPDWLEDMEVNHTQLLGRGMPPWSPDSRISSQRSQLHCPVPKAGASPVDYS
The test is described as follows: flow cytometry, HEK293 cells transfected with pCI-FLAG-cynoROBO4-2, antibody at 10 µg/mL, anti-mouse IgG FITC; control histogram IgG (Mouse IgG2a). Here is the method:
(§1) HEK293 cells were inoculated at a concentration of 1.5×10⁶ cells/dish to a 60-mm dish (manufactured by Corning Inc.) and cultured overnight in a DMEM medium containing 10% FBS at 37° C. under 5% CO₂ conditions. On the next day, the HEK293 cells were transfected with pCI-hROBO4, pCI-mROBO4, pCI-raROBO4, pCI-FLAG-cynoROBO4-1, pCI-FLAG-cynoROBO4-2, pCI-hROBO1, pCI-hROBO2, or pCI-hROBO3 using FuGENE6 Transfection Reagent and further cultured overnight at 37° C. under 5% CO₂ conditions. On the next day, the expression vector-transfected cells were treated with TrypLE Express (manufactured by Life Technologies Corp.), washed with PBS containing 5% FBS, and then suspended in PBS containing 5% FBS. The obtained cell suspension was used in flow cytometry analysis.
Each cell suspension prepared in 4)-3-1 was centrifuged, and the supernatant was removed. Then, MAb1 or a negative control Mouse IgG2a was added at a concentration of 10 μg/mL to 2×10⁵ expression vector-transfected cells, and the resulting suspension was left standing at 4° C. for 1 hour. […] Data was analyzed using Flowjo. The histogram of FITC fluorescence intensity was prepared. The antibody was determined to bind in a cross-species manner when the histogram of MAb1 was shifted to a stronger fluorescence intensity region compared with the histogram of the negative control Mouse IgG2a.
On the technique in general: In flow cytometry, cells or beads pass a laser one at a time.

The target of test [2] is N-terminal FLAG-tagged human ROBO1 (pCI-FLAG-hROBO1-transfected HEK293 cells) (human, UniProt Q9Y6N7 58-1651). Put plainly: flow cytometry, HEK293 cells transfected with pCI-FLAG-hROBO1, anti-mouse IgG FITC; control histogram IgG. Here is the method:
as §1, with “of 1.2×10⁶ cells/dish or” for “of”, “pCI-FLAG-hROBO1,” for “pCI-mROBO4, pCI-raROBO4, pCI-FLAG-cynoROBO4-1, pCI-FLAG-cynoROBO4-2, pCI-hROBO1,”
Each cell suspension prepared in 4)-4-1 was centrifuged, and the supernatant was removed. […] Data was analyzed using Flowjo. The histogram of FITC fluorescence intensity was prepared. The antibody was determined to bind in a specific manner when the histogram of MAb1 was shifted to a stronger fluorescence intensity region compared with the histogram of the negative control Mouse IgG1 or Mouse IgG2a. […]

Data on one molecule can be found in patent US20150098945A1 (Daiichi Sankyo, published 2015).

Chain of N-terminal FLAG-tagged human ROBO1 (pCI-FLAG-hROBO1-transfected HEK293 cells) (Q9Y6N7 other isoform, or with tags, fused parts or gaps): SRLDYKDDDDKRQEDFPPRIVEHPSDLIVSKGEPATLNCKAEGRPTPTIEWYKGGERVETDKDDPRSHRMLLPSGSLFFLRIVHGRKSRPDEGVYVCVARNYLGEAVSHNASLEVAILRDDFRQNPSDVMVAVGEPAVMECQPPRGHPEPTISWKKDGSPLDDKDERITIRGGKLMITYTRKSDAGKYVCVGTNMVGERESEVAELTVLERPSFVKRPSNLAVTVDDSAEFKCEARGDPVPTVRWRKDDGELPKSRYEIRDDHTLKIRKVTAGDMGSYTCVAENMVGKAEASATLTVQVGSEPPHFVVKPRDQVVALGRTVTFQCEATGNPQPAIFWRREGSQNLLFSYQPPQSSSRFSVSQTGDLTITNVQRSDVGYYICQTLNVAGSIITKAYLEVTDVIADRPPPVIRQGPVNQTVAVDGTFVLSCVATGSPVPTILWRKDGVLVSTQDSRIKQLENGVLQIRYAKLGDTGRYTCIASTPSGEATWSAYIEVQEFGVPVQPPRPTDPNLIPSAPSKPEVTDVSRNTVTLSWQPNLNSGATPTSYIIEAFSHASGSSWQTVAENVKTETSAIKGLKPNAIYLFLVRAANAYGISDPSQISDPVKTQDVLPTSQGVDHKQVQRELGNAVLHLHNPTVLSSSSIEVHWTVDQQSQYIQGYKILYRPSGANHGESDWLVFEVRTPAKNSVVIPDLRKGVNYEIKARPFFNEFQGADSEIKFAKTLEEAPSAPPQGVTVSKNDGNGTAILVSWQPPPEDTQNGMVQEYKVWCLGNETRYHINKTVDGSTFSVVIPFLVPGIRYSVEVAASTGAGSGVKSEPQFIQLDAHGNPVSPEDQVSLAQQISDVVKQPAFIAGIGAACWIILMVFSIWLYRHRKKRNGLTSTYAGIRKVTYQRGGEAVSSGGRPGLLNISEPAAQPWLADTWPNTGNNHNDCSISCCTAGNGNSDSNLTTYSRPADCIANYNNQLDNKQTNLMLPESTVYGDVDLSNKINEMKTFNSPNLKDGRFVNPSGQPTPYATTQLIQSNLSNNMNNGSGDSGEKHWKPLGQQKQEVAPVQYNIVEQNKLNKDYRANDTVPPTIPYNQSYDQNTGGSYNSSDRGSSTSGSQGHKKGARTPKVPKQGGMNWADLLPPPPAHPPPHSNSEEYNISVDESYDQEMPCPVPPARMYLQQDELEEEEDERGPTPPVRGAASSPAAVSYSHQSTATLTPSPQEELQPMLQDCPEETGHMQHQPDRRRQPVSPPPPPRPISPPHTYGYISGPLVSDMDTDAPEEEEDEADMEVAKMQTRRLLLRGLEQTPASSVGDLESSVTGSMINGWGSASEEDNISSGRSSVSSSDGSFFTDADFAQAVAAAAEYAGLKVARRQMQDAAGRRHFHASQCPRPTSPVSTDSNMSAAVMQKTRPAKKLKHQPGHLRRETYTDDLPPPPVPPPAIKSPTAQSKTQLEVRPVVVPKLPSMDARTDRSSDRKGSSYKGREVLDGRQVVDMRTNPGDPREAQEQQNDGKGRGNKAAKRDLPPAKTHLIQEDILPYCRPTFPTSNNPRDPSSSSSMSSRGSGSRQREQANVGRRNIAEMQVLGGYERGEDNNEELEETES

B1: anti-ROBO4 mouse monoclonal antibody MAb1 (antibody, mouse IgG1, V domains shown)
VH: EVQLVESGGGLVKPGGSLKLSCAASGFTFSTYAMSWVRQTPEKRLEWVATISNGGTYTYYPDSVKGRFTISRDNAENTLYLQMSSLRSEDTAMYFCARLIYYDYLDYWGHGTTLTVSS
VL: DAVMTQTPLSLPVSLGDQASISCRSSQSLENSNGNTYLNWYFQKPGQSPQLLIYRVSNRFSGVLDRFSGSGSGTDFTLKISRVEAEDFGVYFCLQVTHVPWTFGGGTKLEIKR
notes: Mouse IgG1 (gamma1), kappa light chain, purified from hybridoma supernatant; also called parent antibody MAb1
For B1, the values for the binding result in test [1] and in test [2] were “binds” and “no binding (tested: 10 µg/mL)”, respectively.
